According to patent US8927280B2, “Compositions and methods for promoting the generation of definitive endoderm” (President and Fellows of Harvard College, priority 2009, dated 2015):

Experiments:
[1] = tested on: endoderm derived from Pdx1-GFP mouse ES cells; assay: Differentiation of induced endoderm into Pdx1+ pancreatic progenitors; assay type: cell-based
Method: (§1) Mouse ES cells were routinely cultured on irradiated CF-1 MEF feeder cells in DMEM (Gibco) media supplemented with 15% Fetal Bovine Serum (HyClone FBS, Invitrogen), 2 mM L-glutamine (L-Glu, Gibco), 1.1 mM 2-mercaptoethanol (Gibco), 1 mM nonessential amino acids (Gibco), 1× penicillin/streptomycin (P/S, Gibco) and 5×10^5 units LIF (Chemicon). Cells were passaged at the ratio of 1:6-1:12 every 2-3 days using 0.25% trypsin. To generate the starting population, mouse ES cells was cultured on MEF feeder cells until they reached 80-90% confluence. Prior to differentiation, ES cells were passaged onto gelatin coated plates for 30 min to remove MEFs. MEF depleted ES cells were seeded at 2500 cells per cm^2 on gelatinized plates. After overnight culture, cells were exposed to 25 ng/ml Wnt3a (R&D Systems)+50 ng/ml recombinant Activin A (R&D Systems) or 500 ng/ml Nodal (R&D Systems) in DMEM (Gibco) supplemented with 1×L-Glu and 0.2% FBS (Gibco) for 1 day, then Activin A or Nodal in the same media and cultured for 4-6 days to induce endoderm differentiation. For the chemical inductions, compounds IDE1 and IDE2 (provided by Stuart L. Schreiber) were added at 5 μM concentration in the differentiation media. For pancreatic progenitors induction, the cells were transferred to 50 ng/ml FGF10 (R&D Systems), 0.75 μM KAAD-cyclopamine (Calbiochem) and 2 μM RA (Sigma) or Indolactam V 330 nM (Axxora) in DMEM supplemented with 1×L-Glu, 1×PS, 1×B27 (Invitrogen) for 4 days. SHB431542 was purchased from Sigma. All stock compounds were made with either DMSO or PBS
(§2) Cells were fixed in 4% paraformaldehyde (Sigma) in PBS for 20 min at 4° C. followed by a wash with PBS. Cells were blocked with 10% donkey serum (Jackson Immunoresearch) in PBS/0.1% Triton X and incubated with primary antibodies overnight at 4° C. Secondary antibodies were incubated for 1 h at room temperature. The following antibodies and dilutions were used: goat anti-SOX17, (1:500 R&D systems); rabbit anti-PDX1 (1:200, Chemicon), rabbit anti-FoxA2 (1:500; Upstate), rabbit anti-Dab2 (1:200, Santa Cruz), rabbit anti-SPARC (1:200, Santa Cruz,), mouse anti-AFP (1:100, Sigma), anti-Gata6 (1:50, Santa Cruz Biotech), goat anti-HNF6 (1:200, Santa Cruz Biotech), rabbit anti-RFP/DsRed (1:300, MBL), rabbit anti-GFP (1:200, Molecular Probes). Secondary antibodies were: rhodamine Red-X-conjugated donkey anti-goat antibody, 1:200 (JIRL), Alexa-488-conjugated goat anti-mouse and Alexa-594-conjugated goat anti-rabbit antibodies (1:300, Molecular Probes). Nuclei were visualized by Hoechst 33342 (1:1000, Molecular Probes). Images were taken using an Olympus IX70 Microscope. For quantification images were analyzed for the frequency of SOX17+, FoxA2+ or Pdx1+ cells using Metamorph image analysis software (Molecular Devices) and at least 6 images per well were collected. Data were confirmed in four independent experiments.
Pancreatic progenitors appear in the pancreatic bud at E9.5 and are marked by the expression of the transcription factor Pdx1. […] Using Pdx1-GFP knock-in (Micallef et al., 2005) mouse ES cells the inventors induced definitive endoderm using either of the hit compounds and cultured cells in various conditions for additional six days.

mouse ES cells = assay: Sox17 endoderm induction in mouse ES cell monolayer cultures; assay type: cell-based; conditions: for percent of total cells Sox17/dsRed double positive: Sox17-dsRed mouse ES cells, day 6, low serum
Method: as §1, §2
Endoderm formation was monitored by Sox17 expression by either flow cytometry detection of Sox17/DsRed or immunofluorescence using anti-Sox17 antibodies. Cells labeled by antibody staining were quantified using Metamorph software ad percentage of total cell number (based on Hoechst 33342 nuclei staining). All conditions were tested in either tri- or quadruplicates.

Smad2 = assay: Western blot analysis of Smad2 phosphorylation in ES cell lysates; assay type: cell-based, mouse; conditions: for phosphorylation of Smad2 by IDE1 or IDE2 in the presence of the ALK4/5/7 inhibitor: mouse ES cells, co-treatment; for phosphorylation of Smad2 / activation of the TGF-β pathway: ES cell lysates, after 24 hrs or longer
Method: Cells were lysed in 1×RIPA lysis buffer in the presence of protease inhibitor mixture (Roche)/1% phosphatase inhibitor mixture (Roche). Proteins were separated by 10% Tris-Glycine SDS/PAGE (Bio-rad) under denaturing conditions and transferred to a nitrocellulose membrane. After blocking with 5% skim milk in PBS/0.1% Triton X, the membrane was incubated with primary antibodies against phospho-Smad2 (1:1000, Cell Signaling) overnight at 4° C. The membrane was then washed, incubated with anti-mouse/rabbit peroxidase-conjugated affinity-purified secondary antibody (1:1000, Cell Signaling) at room temperature for 1 h, and developed by SuperSignal chemiluminescence (Pierce).

[2] = tested on: human ES cells (HUES 4 and 8); assay: Sox17 endoderm induction in human ES cells; assay type: cell-based
Method: Human embryonic stem cell lines were cultured essentially as described {Cowan, 2004 #6}. Briefly, HUES4, HUES8 and HUES9 cells are routinely cultured on irradiated CF-1 MEF feeder cells in KnockOut DMEM (Gibco) supplemented with 10% KnockOut Serum Replacement (Gibco), 10% human plasma (Invitrogen), 2 mM L-glutamine (L-Glu, Gibco), 1.1 mM 2-mercaptoethanol (Gibco), 1 mM nonessential amino acids (Gibco), 1× penicillin/streptomycin (PS, Gibco) and 10 ng/ml bFGF (Invitrogen). Cells are split at the ratio of 1:10-1:12 every 4-5 days by using 1 mg/ml collagenase type IV. To induce endoderm formation, HUES cells was cultured on MEF feeder cells till 80-90% confluent, then treated with 100 ng/ml Activin A in advanced RPMI (Gibco) supplemented with 1×L-Glu and 0.2% FBS (Gibco), or with combination of 25 ng/ml Wnt3a (R&D systems)+100 ng/ml Activin A (R&D systems) or were exposed to compounds in the same media. At days 4 and 6 of culture cells were analysed for endodermal marker expression, Sox17.
as §2

Molecule: CC(C)[C@H]1C(=O)N[C@H](CO)Cc2c[nH]c3cccc(c23)N1C [Indolactam V, (2S,5S)-1,2,4,5,6,8-Hexahydro-5-(hydroxymethyl)-1-methyl-2-(1-methylethyl)-3H-pyrrolo[4,3,2-gh]-1,4-benzodiazonin-3-one]
- increase of Pdx1+ cells above control treatment at day 12 ([1]; IDE1 or IDE2 followed by ILV): 10 fold
- percent Pdx1-GFP expressing pancreatic progenitors at day 6 ([1]; IDE1 or IDE2 induced mouse endoderm, second step treatment): 51±7.4%
- yield of pancreatic progenitors compared to a growth factor based approach ([1]; applied to IDE1 or IDE2 derived endoderm): higher yields of pancreatic progenitors
- percent of total cells Pdx1+ at day 12 ([1]; cultures treated initially with IDE1 or IDE2 and followed by ILV): 50%
- increase in Pdx1+ cell number compared to known published protocols ([1]; two-step treatment): 4 fold
- percent of Pdx1+ cells also expressing other pancreatic progenitor markers, including HNF6 ([1]; two-step treatment): 92±5%
- increase in Pdx1+ cell number compared to the control DMSO treated ([1]; two-step treatment, Pdx1 antibody staining): 10 fold
- percent of cells positive with Pdx1 antibodies ([1]; two-step treatment: IDE1 and/or IDE2, then Indolactam V): 53±6.4%

Molecule: NC(=O)c1ccc(-c2nc(-c3ccc4c(c3)OCO4)c(-c3ccccn3)[nH]2)cc1 [SB43125, reference compound]
- induction of Sox17 protein under co-treatment of IDE1 or IDE2 with the ALK4/5/7 inhibitor (mouse ES cells; mouse ES cells): 5.6±1.3%
- phosphorylation of Smad2 by IDE1 or IDE2 in the presence of the ALK4/5/7 inhibitor (Smad2): strongly attenuated
- phosphorylation of Smad2 by IDE1 or IDE2 in the presence of the ALK4/5/7 inhibitor (Smad2; listed as SB431542): significantly attenuated

B1: Nodal: TGF-β family growth factor, protein inducer of endoderm (protein, UniProt Q96S42 238-347, looked up)
Nodal homolog: HHLPDRSQLCRKVKFQVDFNLIGWGSWIIYPKQYNAYRCEGECPNPVGEEFHPTNHAYIQSLLKRYQPHRVPSTCCAPVKTKPLSMLYVDNGRVLLDHHKDMIVEECGCL
- percent of total cells Sox17/dsRed double positive (mouse ES cells): 45%
- percent of ES cells that form (definitive) endoderm, summary statement (mouse ES cells; mouse ES cells): about 45%
- phosphorylation of Smad2 / activation of the TGF-β pathway (Smad2): high level

B2: Activin A: recombinant TGF-β family growth factor, protein inducer of endoderm (protein, UniProt P08476 311-426, looked up)
Inhibin beta A chain: GLECDGKVNICCKKQFFVSFKDIGWNDWIIAPSGYHANYCEGECPSHIAGTSGSSLSFHSTVINHYRMRGHSPFANLKSCCVPTKLRPMSMLYYDDGQNIIKKDIQNMIVEECGCS
- percent of cells expressing Sox17 ([2]; HUES cells, 4 days, IDE1 100 nM, IDE2 200 nM): 64±6.3%
- increase of Sox17 expression compared to the vehicle treatment ([2]; human ESC cultures, 6 days): 4 fold
- percent of total cells expressing Sox17 after 6 days ([2]; human ESC cultures, 6 days): 55-65%
- percent of total cells Sox17/dsRed double positive (mouse ES cells): 45%
- percent of ES cells that form (definitive) endoderm, summary statement (mouse ES cells; mouse ES cells): about 45%
- % of Sox17+ cells compared to IDE1 or IDE2 at all tested time points (mouse ES cells; mouse ES cells, 14 days of treatment): significant but lower % of Sox17+ cells
- percentage of cells expressing Sox17 at day 2 of treatment (mouse ES cells; mouse ES cells, day 2): 13%
- percentage of cells expressing Sox17 at day 4 of treatment (mouse ES cells; mouse ES cells, day 4): 28%
- percent of cells expressing Pdx1 after FGF10, KAAD-cyclopamine and retinoic acid ([1]; label = inducer of the starting endoderm, mouse ES cells): 12.1±4%
- phosphorylation of Smad2 / activation of the TGF-β pathway (Smad2): high level

B3: Wnt3a: Wnt growth factor family member (protein, UniProt P56704 19-352, looked up)
Protein Wnt-3a: SYPIWWSLAVGPQYSSLGSQPILCASIPGLVPKQLRFCRNYVEIMPSVAEGIKIGIQECQHQFRGRRWNCTTVHDSLAIFGPVLDKATRESAFVHAIASAGVAFAVTRSCAEGTAAICGCSSRHQGSPGKGWKWGGCSEDIEFGGMVSREFADARENRPDARSAMNRHNNEAGRQAIASHMHLKCKCHGLSGSCEVKTCWWSQPDFRAIGDFLKDKYDSASEMVVEKHRESRGWVETLRPRYTYFKVPTERDLVYYEASPNFCEPNPETGSFGTRDRTCNVSSHGIDGCDLLCCGRGHNARAERRREKCRCVFHWCCYVSCQECTRVYDVHTCK
- synergy / combined effect on Sox17 induction (mouse ES cells; mouse ES cells, co-treatment): no significant effect
